Earlier results in publication PMC3078175.

Molecular target: IL-17RB (Homo sapiens) (UniProt Q9NRM6)
Sequence of UniProt Q9NRM6 (Q9NRM6 18-292): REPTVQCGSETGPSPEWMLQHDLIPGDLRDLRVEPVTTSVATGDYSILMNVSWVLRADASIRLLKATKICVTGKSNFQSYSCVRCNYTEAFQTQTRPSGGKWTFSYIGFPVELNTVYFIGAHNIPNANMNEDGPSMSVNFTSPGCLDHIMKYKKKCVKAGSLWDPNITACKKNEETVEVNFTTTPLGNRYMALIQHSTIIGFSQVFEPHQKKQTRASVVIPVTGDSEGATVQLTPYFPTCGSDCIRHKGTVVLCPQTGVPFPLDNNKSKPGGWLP

## IL-17B (from UniProt Q9UHF5)
  Kd: 7.6 nM
